Assay: soluble on expression in E. coli; label from the status in PepcDB or PDB records

Sequence | soluble on expression in E. coli
MGSDKIHHHHHHMGLLAGVEISDVPLKKIVTVCLAVLVAGCAGPQTQELLGSAIVAAPVTEIAGNHSIFIATTRKKSDDPNKVFDGERSATLNYARVNVTVPGLHQTGQIERRSRGKSDDPAKYFMASEVVGYDTQPKFSSALNADIAARGGRVMVFVHGYNTGFDDAVYRLTQIVHDSGYPGTPVLFSWASGAKTTDYVYDKESASAARDQLEVTLRMLQQSGARRIDIVAHSMGTWVTMETLRQMAISGDRDLGGKLGDVVLASPDIDVDVFKSQMRRYGKPDKPFILLLSDDDRALRLSGLIAGSRPRVGDYKDAADLASYGVTVVDLSEVKGSDSFNHTKFADNPVLVKMIGQRLREDDGFASDRDVTDRISLLGQ | not soluble
TVLENGSWLIDGDTPVNKLKYVLSVDSFPGEEQGYYLTIAGLIMYILQRIPKTGDHMEFNGLRYEVVDMDGIRIDKVMVTKVPEISKD | not soluble
AIATNDANHLESNCVEEQVQQSLREPWWWLRWRDTPRQQLRGTLFVYTATCPDEKIQRERGFAADHEQVYAFVSFGPEVETDPREHVVEIVKALTSMRSFVETLERTLFEDEDSEPAARTYTHDEPCSVAHHSADADQQFLVETVRHDRIAAAYSSMSQEMHTAPEGARPDCFSKGTSQDHETDTSQPILRKKDETDTWVVALGPDHLVASHTLAACGCALFLGLEWDFRACRSRSDDDFRIMELFQEDLKSRVTWLAPRLGLQHKHACSAQCKDQARNRDSSWDVLLREWLPQAIPGGPRHPQAM | soluble
QPPAPRMIADGYQLLSELGALDERKGLTQIGHQLARFPTDPRIARMIMAAKQENCLSEVLIIAAALSLQDPRDRPFEHQQAADQAHQPFRDDR | not soluble
MADYLLEIGLEEIPAHLVTESENQLIERIKNFFSDNLLDYKKIQTFSTPRRLAVLVHDLSNYSQSKDEELRGPSLKVAKDESGNWSRAAEGFARSQGTSPAEFDERDGYVYLNKHIEGVSAEEILKKIGIEVVEKMKFSTYMKWADFKLEYVRPIRWLVSLLDSKIVPFQILDVKADRFTRGHRFLSGGKISISEAGDYEETLNNAYVIVDAKVRKNSIRNQIRKIADTNDWNLHVDPDLLEEVNNIVEYPTAFAGVFDDKYLNLPEIVLTTSMRDNQRFFYVTNKQGKILPHFISVRNGDSNQIENVVKGNEKVLVARLEDAEFFFEEDQKHNIDFFMKKAERLVFHEKIGTMTEHMKRVEKIAALLANQLAFNDQEKKDLKRAANICKFDLTTAMVGEFAELQGTMAGIYAKIFGENQTVCQALSEQYLPTSSEGDLPKSKVGAMLALADKLDTLFSFFAAGIIPSGSNDPYGLRRAALGIVRIIGQQKWNFSVSKLLHSLKTAVDKHEDGFLIDFADTKEISRKVIEFFLDRIRQQSSDIRYDLLDASTGKVNEGIINY | not soluble
MLPLPTWTLSDVDAILVLSFGGPEGQQDVIPFLENVTRGRGIPRERLEEVAVHYRHFGGISPLNALNREIIGNIIEVLSSRGLEIPVYFGNRNWHPFVNDTAEKMVRDGVRNVAVFATSAWGGYSGCRQYDEDIVRMNHHLEEKELPTLNCLKLRQFFDHPLFIEEMSSVVFQAARELGISALDELQLHQKVVFTAHSIPEVANENSGRKEDGPLYSRQVYEAASLVAKHLGISQERYDVVWQSASGNGQIPWLEPDILDYAKCQHDEGVSELVVAPIGFISDHMEVVWDLDHELQDLASDLGMSISRAATVGHTDSFATMIVELVEESLGVKPHQNLGTVPSKGCSFNGEPCEVNCCKPVQRPHSAKA | not soluble
MTSALPRPAPSPYARRKTALVIGAGFGGLALGIRLQSLGFDTTILERLDGPGGRAYQKRTPDGYVFDMGPTVLTVPHFIEELFALERDRAGLDAPDYPPEVLSGERVKEGVSGGPHTSRYVTLVPILPFYRIVFHDGTYFDYDGDPESTRRQIAELAPGDLAGYERFHADAEAIFRRGFLELGYTHFGDVPTMLRVVPDLLKLDAVRTLFSFTSKYFQSDKLRQVFSFETLLVGGNPLSVPAIYAMIHFVEKTWGIHYAMGGTGALVRGLVQKFEELGGAIRYGAGVDEVLVDGNLPGKRTARGVRLESGEELRADLVASNGDWANTYLKRVRPSARLVNSDLRVKAASESMSLLVVYFGFRGGDDLPLKHHNILLGPRYEALLSEIFGTKRLGEDFSQYLHVPTLTDPALAPAGHHAAYTLVPVPHNGSGIDWDVEGPKLAEAALADIERRGLIPGLRERLTHFEFITPDYFAGTLDSYLGNAFGPEPRLVQSAFFRPHNRSEDLHNFYLVGAGAQPGAGTPSVMMSAKMTARLIAEDFGIHADIRRLEHHHHHH | not soluble
MISLEDASLTKKGIVKLSSATDSDSEALAATPKAVKTVMGEVRTKAPLDSPAFTGTPTTPTPPGDAKGLQTTNAEFVRKLIAALVGSVLEPLDTLQELADALGNDPNFATTVLNKLAGKQPLDETLTALSGKSVDGLIEYVGLRETISRAADALQKSQNGGDIPDKDLFVRRIGAARAFDGAVIIGCDDNPWTTAEFIVWLESQGAFNHPYWMCRGSWSYAYNKIITDTGCGNICLAGAVIEVMGVRGAMTIRVTTSHSVSGW | not soluble
GPGSMMREAGRQRRRNADSDESSSEDEQQQTTTTVQETTAAAPPARVRAKAPAAAVVSAPSMTLHADPTATQVTAPSAVSAETADSEGGSNEDAPSSAAAAAPPNEFSEEMEAIDYDALTYAALLDIMNRASRPVIEELMAQREQQVESTMQQQQNQRVERFLDVATTSSATAAEANGSSAEEEAAEGYRYNTMLTRLFEALNRNNEGSAMTERNQLPVPILERMGKKKTVIANFGRICDAFHRPMEDVKDFIEKELSIRGNLDSNNALILKFEIRKQTDFDRVLIKYLDEYVKCNSCHRIDTTLTKDGRRLELRCNVCTATRTVTAAGTATFSAQIEKRSRQRAAMIL | soluble
ATRRRSLSCYVWIATFGMRYTHEFNKVIRDYVRGHASQIRKRLLPKALEVFASHRIAGDCVVVATGAPPELVREILALVADQQEVVPVIGSSIVPRLGAIIVARHCHHEEKMRMLREQGYGDVAVAYSDSTADLPLLMAAKVPVVVNPKPKREKLFRRVLQP | not soluble
MSGTASKGSSSDSASEKTEMRTYKSPKGNVNIPAHPKRIVTDFYAGELLSVGANVVGSGSWSFDNPFLKSKLKNVKDVGDPISVEKVMELQPDLIVVMNEENVDKLKKIAPTVVIPYNTAKNVEDTVSMFGDIAGAKDQAKSFMADFNKKAEAAKKKIAGVIDKDATFGIYENTDKGEFWVFNDNGGRGGQAVYNALGLKAPEKIEQDVIKKGEMKQLSQEVIPEYAADYMFITDYNPKGESKTLDKLENSSIWKNLDAVKHNRVFINDFDSFYPYDPISVSKQVDIITDMLIKRAEENLEHHHHHH | soluble
MLEARDLYCERDERTLFRGLSFTVDAGEWVQVTGGNGAGKTTLLRLLTGLARPDGGEVYWQGEPLRRVRDSFHRSLLWIGHQPGIKTRLTARENLHFFHPGDGARLPEALAQAGLAGFEDVPVAQLSAGQQRRVALARLWLTRAALWVLDEPFTAIDVNGVARLTRRMAAHTAQGGMVILTTHQPLPGAADTVRRLALTGGGAGL | not soluble
MAKKNPIQPGPEGYIPTPAAFQGCDLPPPGKALLYGEIVDEEVAMREAAKALLTRRNPTIFPGPLVLWGWNADAMEKAKAVLELAMEIPNCRIIPMPDYRPKYPKIDPEAEINPNHPNLTILHNKIEACIFVGVHCHYANLSLRMIRAGTNCFTIALCAEMGHEDAMVSLRDVHADEIRKFRDVVVEVRKELGIEWEPKLPPENPSLPKEDWVKISPLDFGEYAYLLIPRRGEIVEESE | not soluble
MGSDKIHHHHHHAKTTTATTTQASVKKQTYTILSSSFYKTAKTYHTKDAKPVVYKAVMGADRPTMTLTAKGKLKAGTTYKVTKQVKVKINAKKSQKYSYVKGQGWVVSSKLTAGKFKAASGVKKTATKYTIVSVTALKKAKTVHTKDARPVVYKAAVAADRPTMTLTTNGKLKAATTYKVTKQAKLKNAAKKTVAFSYVSGHGWVLQRDLTNGQFMNAD | not soluble
MGSSHHHHHHSSGLVPRGSGDYDYLIKLLALGDSGVGKTTFLYRYTDNKFNPKFITTVGIDFREKRVVYNAQGPNGSSGKAFKVHLQLWDTAGQERFRSLTTAFFRDAMGFLLMFDLTSQQSFLNVRNWMSQLQANAYCENPDIVLIGNKADLPDQREVNERQARELADKYGIPYFETSAATGQNVEKAVETLLDLIMKRMEQCVEKTQIPDTVNGG | soluble

Source: the DeepSol protein solubility set
